Experimental data taken from paper PMC4970993, “Kinetic studies on recombinant UDP-glucose: sterol 3-O-β-glycosyltransferase from Micromonospora rhodorangea and its bioconversion potential” (AMB Express, 2016).

Columns and labels:
purified protein = substrate: CC(C)CCC[C@@H](C)[C@H]1CC[C@H]2[C@@H]3CC=C4C[C@@H](O)CC[C@]4(C)[C@H]3CC[C@]12C; assay: purified protein; settings: glycosyl acceptor, 0.8 mM UDP-Glc, 50 mM Tris-HCl pH 7.4 (pH 7.5), 5 mM MgCl2, 30 °C, apparent
[1] = substrate: C=C(CC[C@@H](C)[C@H]1CC[C@H]2C3=CC[C@H]4[C@H](C)[C@@H](O)CC[C@]4(C)[C@H]3CC[C@]12C)C(C)C; assay: HPLC-MS/MS of sterol glucoside formation, Michaelis-Menten fit; assay type: biochemical, Micromonospora echinospora; settings: glycosyl acceptor, 0.8 mM UDP-Glc, 50 mM Tris-HCl pH 7.4 (pH 7.5), 5 mM MgCl2, 30 °C, apparent
Source text: (§1) HPLC-MS/MS of sterol glucoside formation, Michaelis-Menten fit on MrSGT

[2] = substrate: CC(C)[C@H](C)CC[C@@H](C)[C@H]1CC[C@H]2[C@@H]3CC=C4C[C@@H](O)CC[C@]4(C)[C@H]3CC[C@]12C; assay: as above; assay type: biochemical, Micromonospora echinospora; settings: glycosyl acceptor, 0.8 mM UDP-Glc, 50 mM Tris-HCl pH 7.4 (pH 7.5), 5 mM MgCl2, 30 °C, apparent
Source text: as §1

[3] = substrate: O=c1ccn([C@@H]2O[C@H](CO[P@@](=O)(O)O[P@@](=O)(O)O[C@H]3O[C@H](CO)[C@@H](O)[C@H](O)[C@H]3O)[C@@H](O)[C@H]2O)c(=O)[nH]1; assay: as above; assay type: biochemical, Micromonospora echinospora; settings: glycosyl donor, 0.6 mM β-sitosterol as acceptor, 50 mM Tris-HCl pH 7.4 (pH 7.5), 5 mM MgCl2, 30 °C, apparent
Source text: as §1

[4] = substrate: C/C=C(\CC[C@@H](C)[C@H]1CC[C@H]2[C@@H]3CC=C4C[C@@H](O)CC[C@]4(C)[C@H]3CC[C@]12C)C(C)C; assay: as above; assay type: biochemical, Micromonospora echinospora; settings: glycosyl acceptor, 0.8 mM UDP-Glc, 50 mM Tris-HCl pH 7.4 (pH 7.5), 5 mM MgCl2, 30 °C, apparent
Source text: as §1

[5] = substrate: [H][C@@]12CC=C3C[C@@H](O)CC[C@]3(C)[C@@]1([H])CC[C@@]1(C)[C@@]2([H])CC[C@]1([H])[C@H](C)CC[C@@H](CC)C(C)C; assay: as above; assay type: biochemical, Micromonospora echinospora; settings: glycosyl acceptor, 0.8 mM UDP-Glc, 50 mM Tris-HCl pH 7.4 (pH 7.5), 5 mM MgCl2, 30 °C, apparent
Source text: as §1

B1: MrSGT (Micromonospora echinospora) (protein)
chain: MRILIATAGSRGDVAPYTGLGAALRRAGYDVAVATTDTFARMVRDAGLGFRRLPADTRGHAGVRSNREVVRAAGVHRGTGPGLRRRAVSEGTDLLLLSTTTAPLGWLIGEATGIRSLGVYLQPTAPTADFPPVVTGARSLGRLGNRTAGRLALRMADRIYAEAVAGLRERLCLPPLSAAAMRARQERAGWPVLHGFGTALVPRPADWRPGLEVVGPWWPHHDAGERLPSELEDFLDAGPRPVLVGFGSMAAGDGERLSELAVRALRRAGLRGILQSGNACLAAEGDDVLTVGDVPHALLFPRLAAVVHHGGAGTRRDPAGGRPLGGGPGDRRPEPFWAGRLARIGAAPAPVPFTTLTADGLAGALGRVVGDEAYARAAEKAARHLAAEDGAARV
notes: recombinant His-tagged protein expressed in E. coli BL21(DE3), purified; ORF from fosmid library
Km (purified protein): 450 ± 50 µM | kcat (purified protein): 0.132 ± 0.0185 s⁻¹ | kcat/Km (purified protein): 292 M⁻¹ s⁻¹ | Km [1]: 510 ± 60 µM | kcat [1]: 0.13 ± 0.017 s⁻¹ | kcat/Km [1]: 257 M⁻¹ s⁻¹ | Km [2]: 280 ± 30 µM | kcat [2]: 0.128 ± 0.0165 s⁻¹ | kcat/Km [2]: 457 M⁻¹ s⁻¹ | Km [3]: 280 ± 30 µM | kcat [3]: 0.122 ± 0.0172 s⁻¹ | Km [4]: 130 ± 20 µM | kcat [4]: 0.122 ± 0.0273 s⁻¹ | kcat/Km [4]: 940 M⁻¹ s⁻¹ | Km [5]: 90 ± 10 µM | kcat [5]: 0.122 ± 0.0172 s⁻¹ | kcat/Km [5]: 1350 M⁻¹ s⁻¹
